Measured values reported in patent US20230312756A1 (MacroGenics, published 2023).

Target: T1, PD-1 on circulating T cells of patients (human, UniProt Q15116 25-288)
T1 construct: whole, on cells; Probably the same protein as m2
Assay: receptor occupancy by flow cytometry on blood of patients treated with DART-D
Description: Receptor Occupancy (RO): One hundred microliter […] volumes of whole blood samples (per time point/per patient) were incubated with saturating concentration of DART-D, followed by lysis and detection of DART-D by biotinylated anti-drug mAb/Strep-PE in “DART-D-spiked” and control samples. After subtraction of background fluorescence (Step-PE only), RO values were calculated as a fraction of maximal binding capacity: RO=(untreated MFI(PE)−background MFI(PE))/(treated MFI(PE)−background MFI(PE)).

T1 sequence (Q15116 25-288): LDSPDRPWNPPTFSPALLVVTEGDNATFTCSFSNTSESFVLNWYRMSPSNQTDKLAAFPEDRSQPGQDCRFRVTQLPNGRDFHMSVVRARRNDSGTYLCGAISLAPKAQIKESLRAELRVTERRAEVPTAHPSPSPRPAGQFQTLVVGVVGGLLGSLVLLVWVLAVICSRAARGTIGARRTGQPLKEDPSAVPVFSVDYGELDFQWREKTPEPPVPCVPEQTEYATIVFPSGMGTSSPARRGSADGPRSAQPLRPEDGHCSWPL

B1: DART-D (bispecific antibody, human IgG4 S228P)
chain 1: EIVLTQSPATLSLSPGERATLSCRASESVDNYGMSFMNWFQQKPGQPPKLLIHAASNQGSGVPSRFSGSGSGTDFTLTISSLEPEDFAVYFCQQSKEVPYTFGGGTKVEIKGGGSGGGGQVQLVESGGGVVQPGRSLRLSCAASGFTFSSYTMHWVRQAPGKGLEWVTFISYDGSNKHYADSVKGRFTVSRDNSKNTLYLQMNSLRAEDTAIYYCARTGWLGPFDYWGQGTLVTVSSGGCGGGEVAACEKEVAALEKEVAALEKEVAALEKESKYGPPCPPCPAPEFLGGPSVFLFPPKPKDTLYITREPEVTCVVVDVSQEDPEVQFNWYVDGVEVHNAKTKPREEQFNSTYRVVSVLTVLHQDWLNGKEYKCKVSNKGLPSSIEKTISKAKGQPREPQVYTLPPSQEEMTKNQVSLTCLVKGFYPSDIAVEWESNGQPENNYKTTPPVLDSDGSFFLYSRLTVDKSRWQEGNVFSCSVMHEALHNHYTQKSLSLSLG
chain 2: not shown
notes: Tetravalent (2x2) four-chain Fc-bearing diabody, two sites for PD-1 and two for CTLA-4; also called MGD019; PD-1×CTLA-4 bispecific molecule
B1: binds.
